Measured values taken from patent publication US20190010233A1 (JIANGSU HYAMAB PHARMACEUTICAL, published 2019).
Like-named read-outs stand apart in the source and are kept apart here.

Assays:
[1] = molecular target: T1, full length cyno PD-L1 on cells (cyno, UniProt G7PSE7 19-290); test: FACS CHO-K1-cPD-L1, 30 nM mAb
T1 construct: also called CHO-K1-cPD-L1

[2] = molecular target: T2, human PD-L1^ECD-hFc protein (human, UniProt Q9NZQ7 19-239, biotinylated in the PD-1 binding ELISA (Table 3) and in the Octet assay (Table 12)); test: ELISA receptor-ligand blocking assay: PD-L1 protein coated, fully human antibody titrated, blocked ligand PD-1, inhibition rate (%)
T2 construct: The plain and the biotinylated protein are kept as one molecule; also called PD-L1-hFc; Immunogen A; not shown: human IgG Fc fragment (hFc)
T2 sequence (Q9NZQ7 19-239): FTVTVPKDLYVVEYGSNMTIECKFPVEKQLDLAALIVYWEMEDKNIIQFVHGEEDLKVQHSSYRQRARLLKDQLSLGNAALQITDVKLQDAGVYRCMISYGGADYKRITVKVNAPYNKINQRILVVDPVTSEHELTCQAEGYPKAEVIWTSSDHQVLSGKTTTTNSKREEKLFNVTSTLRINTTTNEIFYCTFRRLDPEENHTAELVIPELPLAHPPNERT

[3] = molecular target: T3, recombinant His-tagged hPD-L1 ECD protein (human, UniProt Q9NZQ7 19-239); test: SPR Biacore T200, mAb captured by anti-human Fc, His-tagged hPD-L1 ECD as analyte, 1:1 model
T3 construct: also called His-tagged human PD-L1 ECD protein; His-tagged PD-L1^ECD; not shown: His tag
T3 sequence (Q9NZQ7 19-239): as above
Procedure: Anti-human Fc IgG was immobilized on flow cells 1 and 2: HBS-EP+ (10 mM HEPES, 150 mM NaCl, 3 mM EDTA, 0.05% P20, pH 7.4) was used as miming buffer, and the immobilization of anti-human Fc IgG was carried out using the immobilization wizard template. Flow cells 1 and 2 of a Series S CM5 sensor chip were activated with freshly-mixed 50 mmol/L NHS and 200 mmol/L EDC. 20 μg/mL of anti-human Fc IgG diluted in 10 mM NaAC (pH 4.5) was injected into the activated flow cells 1 and 2. The remaining active coupling sites were blocked with 1M ethanolamine.
KD measurements were carried out with HBS-EP+ as the running buffer. Each antibody was injected over the CM5 sensor flow cell 2 with a flow rate of 10 μL/min to reach response 230 RU. […] Buffer flow was maintained for 400 seconds for dissociation measurements (30 μL/min). To remove the tested antibody from the surface, 10 mM glycine-HCl pH 1.5 was injected for 20 seconds (30 μL/min). Flow cell 1 was used as reference flow cell. The above steps were repeated for each concentration of serially-diluted His-tagged PD-L1^ECD protein. The KD value for each antibody was evaluated using Biacore T200 evaluation software 1.0, and the data was fit with a 1:1 binding model.

[4] = molecular target: T1, full length cyno PD-L1 on cells; test: FACS CHO-K1-cPD-L1, 300 nM mAb
[5] = molecular target: T1, full length cyno PD-L1 on cells; test: FACS CHO-K1-cPD-L1, 3 nM mAb
[6] = molecular target: T4, full length human PD-L1 on cells (human, UniProt Q9NZQ7 19-290); test: FACS CHOK1-hPD-L1, 0.3 nM mAb
T4 construct: Also used as the target of the cell-based functional assays (transfected stimulator cells; PD-L1 of the cells in the mixed lymphocyte reaction); also called CHO-K1-hPD-L1; CHOK1-hPD-L1
T4 sequence (Q9NZQ7 19-290 limits assumed): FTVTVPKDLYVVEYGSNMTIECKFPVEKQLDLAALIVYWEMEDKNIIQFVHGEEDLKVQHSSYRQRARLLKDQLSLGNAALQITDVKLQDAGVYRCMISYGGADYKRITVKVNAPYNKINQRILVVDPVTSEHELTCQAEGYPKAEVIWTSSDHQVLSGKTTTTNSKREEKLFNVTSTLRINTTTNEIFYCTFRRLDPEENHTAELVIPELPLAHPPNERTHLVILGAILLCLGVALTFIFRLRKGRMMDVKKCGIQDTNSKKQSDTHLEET

[7] = molecular target: T1, full length cyno PD-L1 on cells; test: FACS CHO-K1-cPD-L1, 0.03 nM mAb
[8] = molecular target: T4, full length human PD-L1 on cells; test: FACS CHOK1-hPD-L1, 300 nM mAb
[9] = molecular target: T4, full length human PD-L1 on cells; test: FACS CHOK1-hPD-L1, 30 nM mAb
[10] = molecular target: T1, full length cyno PD-L1 on cells; test: FACS CHO-K1-cPD-L1, 0.003 nM mAb
[11] = molecular target: T4, full length human PD-L1 on cells; test: cell-based or functional assay
[12] = molecular target: T4, full length human PD-L1 on cells; test: cell-based or functional assay; remark: listed apart in the source
[13] = molecular target: T4, full length human PD-L1 on cells; test: FACS CHOK1-hPD-L1, 0.03 nM mAb
[14] = molecular target: T1, full length cyno PD-L1 on cells; test: FACS CHO-K1-cPD-L1, 0.3 nM mAb
[15] = molecular target: T1, full length cyno PD-L1 on cells; test: FACS CHO-K1-cPD-L1, 0.0003 nM mAb
[16] = molecular target: T4, full length human PD-L1 on cells; test: FACS CHOK1-hPD-L1, 0.0003 nM mAb
[17] = molecular target: T4, full length human PD-L1 on cells; test: cell-based or functional assay; remark: listed apart in the source
[18] = molecular target: T4, full length human PD-L1 on cells; test: cell-based or functional assay; remark: listed apart in the source
[19] = molecular target: T4, full length human PD-L1 on cells; test: FACS CHOK1-hPD-L1, 3 nM mAb
[20] = molecular target: T4, full length human PD-L1 on cells; test: FACS CHOK1-hPD-L1, 0.003 nM mAb
[21] = molecular target: T2, human PD-L1^ECD-hFc protein; test: ELISA receptor-ligand blocking assay: PD-L1 protein coated, fully human antibody titrated, blocked ligand B7.1, inhibition rate (%)
[22] = molecular target: T4, full length human PD-L1 on cells; test: cell-based or functional assay; remark: listed apart in the source

T1 sequence (G7PSE7 entry or part of it limits assumed): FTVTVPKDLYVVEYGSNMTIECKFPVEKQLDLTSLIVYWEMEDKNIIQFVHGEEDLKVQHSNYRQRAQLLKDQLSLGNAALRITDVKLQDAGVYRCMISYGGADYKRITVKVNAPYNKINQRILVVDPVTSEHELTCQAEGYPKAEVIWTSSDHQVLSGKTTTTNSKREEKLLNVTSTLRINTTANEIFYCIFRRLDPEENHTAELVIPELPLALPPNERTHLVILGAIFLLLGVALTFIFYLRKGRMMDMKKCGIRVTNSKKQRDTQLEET

B1: fully human anti-PD-L1 antibody 73D3G2 (antibody, human IgG4 S228P, kappa, V domains shown)
VH: EVQLVESGGGLVQPGGSLRLSCAASGFTFNTYWMNWVRQAPGRGLEWVANIKQDGGEKYYVDSVKGRFTISRDNAKNSLYLQMNSLRAEDTAMYYCARDGRSWYPDAFDIWGQGTVVTVSS
VL: DIQMTQSPSTLSASVGDRVTITCRASQSISTWLAWYQQKLGKAPKLLIYEVSILESGVPSRFSGSGSGTEFTLTISSLQPDDFATYYCQQYHSFSSFGGGTRVEIKR
notes: also called 73D3G2 (fully human)
- Mean fluorescence intensity [1]: 519
- IC50 (read off the curve) [2]: ~1 nM
- Kd [3]: 0.536 nM
- koff [3]: 0.000757 s⁻¹
- kon [3]: 1.41e+06 M⁻¹ s⁻¹
- Mean fluorescence intensity [4]: 512
- Mean fluorescence intensity [5]: 495
- Mean fluorescence intensity [6]: 193
- Mean fluorescence intensity [7]: 26.2
- Mean fluorescence intensity [8]: 602
- Mean fluorescence intensity [9]: 595
- Mean fluorescence intensity [10]: 7.84
- IL-2 (pg/mL), MLR, 0.001 µg/mL mAb [11]: 205 pg/mL
- IL-2 (pg/mL), MLR, 0.01 µg/mL mAb [11]: 218 pg/mL
- IL-2 (pg/mL), MLR, 0.1 µg/mL mAb [11]: 563 pg/mL
- IL-2 (pg/mL), MLR, 1 µg/mL mAb [11]: 716 pg/mL
- IL-2 (pg/mL), MLR, 10 µg/mL mAb [11]: 791 pg/mL
- IFN-γ (pg/mL), MLR, 0.001 µg/mL mAb [12]: 12500 pg/mL
- IFN-γ (pg/mL), MLR, 0.01 µg/mL mAb [12]: 10000 pg/mL
- IFN-γ (pg/mL), MLR, 0.1 µg/mL mAb [12]: 21000 pg/mL
- IFN-γ (pg/mL), MLR, 1 µg/mL mAb [12]: 21500 pg/mL
- IFN-γ (pg/mL), MLR, 10 µg/mL mAb [12]: 21400 pg/mL
- Mean fluorescence intensity [13]: 28.6
- Mean fluorescence intensity [14]: 174
- Mean fluorescence intensity [15]: 4.87
- Mean fluorescence intensity [16]: 4.68
- IFN-γ (pg/mL), MLR, 0.001 µg/mL mAb [17]: 957 pg/mL
- IFN-γ (pg/mL), MLR, 0.01 µg/mL mAb [17]: 1080 pg/mL
- IFN-γ (pg/mL), MLR, 0.1 µg/mL mAb [17]: 1990 pg/mL
- IFN-γ (pg/mL), MLR, 1 µg/mL mAb [17]: 3040 pg/mL
- IFN-γ (pg/mL), MLR, 10 µg/mL mAb [17]: 2590 pg/mL
- IFN-γ (pg/mL), T cell stimulation assay, 0.001 µg/mL mAb [18]: 4450 pg/mL
- IFN-γ (pg/mL), T cell stimulation assay, 0.01 µg/mL mAb [18]: 10600 pg/mL
- IFN-γ (pg/mL), T cell stimulation assay, 0.1 µg/mL mAb [18]: 12300 pg/mL
- IFN-γ (pg/mL), T cell stimulation assay, 1 µg/mL mAb [18]: 12300 pg/mL
- IFN-γ (pg/mL), T cell stimulation assay, 10 µg/mL mAb [18]: 14000 pg/mL
- Mean fluorescence intensity [19]: 576
- Mean fluorescence intensity [20]: 7.6
- IC50 (read off the curve) [21]: ~1 nM
- IL-2 (pg/mL), MLR, 0.001 µg/mL mAb [22]: 59.7 pg/mL
- IL-2 (pg/mL), MLR, 0.01 µg/mL mAb [22]: 83.4 pg/mL
- IL-2 (pg/mL), MLR, 0.1 µg/mL mAb [22]: 114 pg/mL
- IL-2 (pg/mL), MLR, 1 µg/mL mAb [22]: 139 pg/mL

B2: fully human anti-PD-L1 antibody 78A11F6 (antibody, human IgG4 S228P, kappa, V domains shown)
VH: EVQLVESGGGLVQPGGSLRLSCAASGITFSSYWMSWVRQTPGKGLEWVANIKQDGSEKYYVKSVKGRFTISRDNAKNSLYLQMNSLRAEDTAVYYCVRDRAVPGTGAFDIWGQGTMVIVSS
VL: DIQMTQSPSTLSASVGDRVTITCRASQSISNWLAWYQQKPGKAPKLLIYKASSLESGVPSRFSGSGSGTEFTLTISSLQPDDFATYYCQQYDSSLFTFGQGTKLEIKR
notes: also called 78A11F6 (fully human)
- Mean fluorescence intensity [1]: 529
- IC50 (read off the curve) [2]: ~0.7 nM
- Kd [3]: 0.643 nM
- koff [3]: 0.000472 s⁻¹
- kon [3]: 734000 M⁻¹ s⁻¹
- Mean fluorescence intensity [4]: 538
- Mean fluorescence intensity [5]: 521
- Mean fluorescence intensity [6]: 217
- Mean fluorescence intensity [7]: 64.1
- Mean fluorescence intensity [8]: 633
- Mean fluorescence intensity [9]: 620
- Mean fluorescence intensity [10]: 8.94
- IL-2 (pg/mL), MLR, 0.001 µg/mL mAb [11]: 210 pg/mL
- IL-2 (pg/mL), MLR, 0.01 µg/mL mAb [11]: 283 pg/mL
- IL-2 (pg/mL), MLR, 0.1 µg/mL mAb [11]: 730 pg/mL
- IL-2 (pg/mL), MLR, 1 µg/mL mAb [11]: 736 pg/mL
- IL-2 (pg/mL), MLR, 10 µg/mL mAb [11]: 842 pg/mL
- Mean fluorescence intensity [13]: 36.5
- Mean fluorescence intensity [14]: 243
- Mean fluorescence intensity [15]: 5.47
- Mean fluorescence intensity [16]: 6.53
- IFN-γ (pg/mL), MLR, 0.001 µg/mL mAb [17]: 1080 pg/mL
- IFN-γ (pg/mL), MLR, 0.01 µg/mL mAb [17]: 1650 pg/mL
- IFN-γ (pg/mL), MLR, 0.1 µg/mL mAb [17]: 3010 pg/mL
- IFN-γ (pg/mL), MLR, 1 µg/mL mAb [17]: 3760 pg/mL
- IFN-γ (pg/mL), MLR, 10 µg/mL mAb [17]: 3400 pg/mL
- IFN-γ (pg/mL), T cell stimulation assay, 0.001 µg/mL mAb [18]: 4030 pg/mL
- IFN-γ (pg/mL), T cell stimulation assay, 0.01 µg/mL mAb [18]: 9200 pg/mL
- IFN-γ (pg/mL), T cell stimulation assay, 0.1 µg/mL mAb [18]: 9840 pg/mL
- IFN-γ (pg/mL), T cell stimulation assay, 1 µg/mL mAb [18]: 9960 pg/mL
- IFN-γ (pg/mL), T cell stimulation assay, 10 µg/mL mAb [18]: 12500 pg/mL
- Mean fluorescence intensity [19]: 619
- Mean fluorescence intensity [20]: 10.4
- IC50 (read off the curve) [21]: ~0.7 nM
